According to patent publication US20240190962A1 (IMMUNOWAKE, published 2024):
Residue numbers refer to the chain shown, from its start. In names and notes the source's numbering stands. Like-named read-outs stand apart in the source and are kept apart here.

T1: human IL-2 receptor (IL-2Rα, IL-2Rβ, IL-2Rγ) (human, UniProt P01589 22-272; P14784 27-551; P31785 23-369)
T1 sequence (looked up) 1: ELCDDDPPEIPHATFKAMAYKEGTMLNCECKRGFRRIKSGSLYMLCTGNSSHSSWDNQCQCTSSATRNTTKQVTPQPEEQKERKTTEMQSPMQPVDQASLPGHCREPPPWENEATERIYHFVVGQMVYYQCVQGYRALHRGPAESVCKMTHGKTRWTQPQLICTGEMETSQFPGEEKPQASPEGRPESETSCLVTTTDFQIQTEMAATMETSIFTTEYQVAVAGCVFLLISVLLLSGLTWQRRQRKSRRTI
T1 sequence (looked up) 2: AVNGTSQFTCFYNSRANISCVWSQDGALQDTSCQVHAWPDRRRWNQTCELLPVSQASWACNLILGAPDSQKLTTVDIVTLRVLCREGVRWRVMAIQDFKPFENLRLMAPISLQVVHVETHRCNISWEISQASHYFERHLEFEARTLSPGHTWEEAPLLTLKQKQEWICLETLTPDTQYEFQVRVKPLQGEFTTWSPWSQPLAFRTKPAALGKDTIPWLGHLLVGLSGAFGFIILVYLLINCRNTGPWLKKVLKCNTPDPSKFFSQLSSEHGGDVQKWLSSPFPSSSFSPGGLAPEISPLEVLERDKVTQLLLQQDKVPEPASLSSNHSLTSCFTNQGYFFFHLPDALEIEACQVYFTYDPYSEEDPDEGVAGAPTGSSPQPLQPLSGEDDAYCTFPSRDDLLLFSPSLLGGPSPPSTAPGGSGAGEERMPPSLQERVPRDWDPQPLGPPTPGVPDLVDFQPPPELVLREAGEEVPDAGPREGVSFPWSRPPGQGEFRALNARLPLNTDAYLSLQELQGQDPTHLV
T1 sequence (looked up) 3: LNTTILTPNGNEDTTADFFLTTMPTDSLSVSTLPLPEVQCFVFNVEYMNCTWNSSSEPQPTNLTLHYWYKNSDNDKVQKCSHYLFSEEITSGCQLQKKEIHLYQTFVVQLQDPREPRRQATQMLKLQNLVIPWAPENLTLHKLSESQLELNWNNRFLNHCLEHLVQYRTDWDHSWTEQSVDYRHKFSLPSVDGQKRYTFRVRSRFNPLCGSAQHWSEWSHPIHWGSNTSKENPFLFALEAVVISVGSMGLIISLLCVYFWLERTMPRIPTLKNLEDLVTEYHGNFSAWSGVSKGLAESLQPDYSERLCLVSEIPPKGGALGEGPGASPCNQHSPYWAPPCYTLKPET

B1: anti-PD-1 antibody nivolumab (Opdivo) (antibody, human IgG4 S228P, kappa, V domains shown)
VH: QVQLVESGGGVVQPGRSLRLDCKASGITFSNSGMHWVRQAPGKGLEWVAVIWYDGSKRYYADSVKGRFTISRDNSKNTLFLQMNSLRAEDTAVYYCATNDDYWGQGTLVTVSS
VL: EIVLTQSPATLSLSPGERATLSCRASQSVSSYLAWYQQKPGQAPRLLIYDASNRATGIPARFSGSGSGTDFTLTISSLEPEDFAVYYCQQSSNWPRTFGQGTKVEIKR
B2: Fab-IL-12(WT)-Fc-CD8 Ab (other)
light: DIQMTQTTSSLSASLGDRVTISCRASQDINNYLNWYQQKSDGTIKLLIYYTSRSYSGVPSRFSGSGSGTDYSLTISNRRQEDIATYFCQQGKTLPWTFGGGTKLEIKRTVAAPSVFIFPPSDEQLKSGTASVVCLLNNFYPREAKVQWKVDNALQSGNSQESVTEQDSKDSTYSLSSTLTLSKADYEKHKVYACEVTHQGLSSPVTKSFNRGEC
heavy 1: EVQLQQSGPELVKPGASVKMSCKASGYTFTDYYMKWVKQSHGKSLEWIGHINPNNDDTFYTQKFKGRATLTVDKSSSTAYMQLNSLTSEDSAVYYCVRDDYDGGWFAYWGQGTLVTVSSASTKGPSVFPLAPSSKSTSGGTAALGCLVKDYFPEPVTVSWNSGALTSGVHTFPAVLQSSGLYSLSSVVTVPSSSLGTQTYICNVNHKPSNTKVDKKVEPKSCDKTHTCPPCPAPEKKGGPSVFLFPPKPKDTLMISRTPEVTCVVVDVSHEDPEVKFNWYVDGVEVHNAKTKPREEQYNSTYRVVSVLTVLHQDWLNGKEYKCKVSNKALPAPIEKTISKAKGQPREPQVYVLPPSREEMTKNQVSLLCLVKGFYPSDIAVEWESNGQPENRYMTWPPVLDSDGSFFLYSKLTVDKSRWQQGNVFSCSVMHEALHNHYTQKSLSLSPGK
heavy 2: EVQLQQSGPELVKPGASVKMSCKASGYTFTDYYMKWVKQSHGKSLEWIGHINPNNDDTFYTQKFKGRATLTVDKSSSTAYMQLNSLTSEDSAVYYCVRDDYDGGWFAYWGQGTLVTVSSASTKGPSVFPLAPSSKSTSGGTAALGCLVKDYFPEPVTVSWNSGALTSGVHTFPAVLQSSGLYSLSSVVTVPSSSLGTQTYICNVNHKPSNTKVDKKVEPKSCDKPGSGIWELKKDVYVVELDWYPDAPGEMVVLTCDTPEEDGITWTLDQSSEVLGSGKTLTIQVKEFGDAGQYTCHKGGEVLSHSLLLLHKKEDGIWSTDILKDQKEPKNKTFLRCEAKNYSGRFTCWWLTTISTDLTFSVKSSRGSSDPQGVTCGAATLSAERVRGDNKEYEYSVECQEDSACPAAEESLPIEVMVDAVHKLKYENYTSSFFIRDIIKPDPPKNLQLKPLKNSRQVEVSWEYPDTWSTPHSYFSLTFCVQVQGKSKREKKDRVFTDKTSATVICRKNASISVRAQDRYYSSSWSEWASVPCSGGGGSGGGGSGGGGSGGGGSGRNLPVATPDPGMFPCLHHSQNLLRAVSNMLQKARQTLEFYPCTSEEIDHEDITKDKTSTVEACLPLELTKNESCLNSRETSFITNGSCLASRKTSFMMALCLSSIYEDLKMYQVEFKTMNAKLLMDPKRQIFLDQNMLAVIDELMQALNFNSETVPQKSSLEEPDFYKTKIKLCILLHAFRIRAVTIDRVMSYLNASDKTHTCPPCPAPEDEGGPSVFLFPPKPKDTLMISRTPEVTCVVVDVSHEDPEVKFNWYVDGVEVHNAKTKPREEQYNSTYRVVSVLTVLHQDWLNGKEYKCKVSNKALPAPIEKTISKAKGQPREPQVYVYPPSREEMTKNQVSLTCLVKGFYPSDIAVEWESNGQPENNYKTTPPVLDEDGSFALVSKLTVDKSRWQQGNVFSCSVMHEALHNHYTQKSLSLSPGK
notes: copies: 2 + 1 + 1
B3: Fab-IL-12(E59A)-Fc-CD8 Ab (other)
light: B2 light
heavy 1: B2 heavy 1
heavy 2: B2 heavy 2 with E287A
notes: copies: 2 + 1 + 1
B4: Fab-IL-12(F60A)-Fc-CD8 Ab (other)
light: B2 light
heavy 1: B2 heavy 1
heavy 2: B2 heavy 2 with F288A
notes: copies: 2 + 1 + 1
B5: Fab-IL-12(E59A/F60A)-Fc-CD8 Ab (other)
light: B2 light
heavy 1: B2 heavy 1
heavy 2: B2 heavy 2 with E287A, F288A
B6: Fab-IL-2 mutant-Fc-CD3 Ab (other)
light: EIVMTQSPGTLSLSPGESATLSCSASLSVSFMHWFQQKPGHAPRLLIYRTSNLASGVPDRFSGSGSGTDFTLTISRLEPEDFAVYYCQQRSSDPPTFGQGTRLEIKRTVAAPSVFIFPPSDEQLKSGTASVVCLLNNFYPREAKVQWKVDNALQSGNSQESVTEQDSKDSTYSLSSTLTLSKADYEKHKVYACEVTHQGLSSPVTKSFNRGEC
heavy 1: EVQLVESGGGLVQPGRSLRLSCTASGFTFSYFWMNWVRQAPGKGLEWVGEIRLRSDNYATHYAESVKGRFTISRDDSKSIAYLQMNSLKTEDTALYYCTRDWEFTYWGQGTTVTVSSASTKGPSVFPLAPSSKSTSGGTAALGCLVKDYFPEPVTVSWNSGALTSGVHTFPAVLQSSGLYSLSSVVTVPSSSLGTQTYICNVNHKPSNTKVDKKVEPKSCDKTHTCPPCPAPEKKGGPSVFLFPPKPKDTLMISRTPEVTCVVVDVSHEDPEVKFNWYVDGVEVHNAKTKPREEQYNSTYRVVSVLTVLHQDWLNGKEYKCKVSNKALPAPIEKTISKAKGQPREPQVYVLPPSREEMTKNQVSLLCLVKGFYPSDIAVEWESNGQPENRYMTWPPVLDSDGSFFLYSKLTVDKSRWQQGNVFSCSVMHEALHNHYTQKSLSLSPGK
heavy 2: EVQLVESGGGLVQPGRSLRLSCTASGFTFSYFWMNWVRQAPGKGLEWVGEIRLRSDNYATHYAESVKGRFTISRDDSKSIAYLQMNSLKTEDTALYYCTRDWEFTYWGQGTTVTVSSASTKGPSVFPLAPSSKSTSGGTAALGCLVKDYFPEPVTVSWNSGALTSGVHTFPAVLQSSGLYSLSSVVTVPSSSLGTQTYICNVNHKPSNTKVDKKVEPKSCDKPAPTSSSTKKTQLQLEHLLLDLQMILNGINNYKNPKLTDMLTFEFYMPKKATELKHLQCLERELKPLEEVLNLAQSKNFHLRPRDLISNINVIVLELKGSETTFMCEYADETATIVEFLNRWITFCQSIISTLTDKTHTCPPCPAPEDEGGPSVFLFPPKPKDTLMISRTPEVTCVVVDVSHEDPEVKFNWYVDGVEVHNAKTKPREEQYNSTYRVVSVLTVLHQDWLNGKEYKCKVSNKALPAPIEKTISKAKGQPREPQVYVYPPSREEMTKNQVSLTCLVKGFYPSDIAVEWESNGQPENNYKTTPPVLDEDGSFALVSKLTVDKSRWQQGNVFSCSVMHEALHNHYTQKSLSLSPGK

Assays:
[1] = biological target: T1, human IL-2 receptor (IL-2Rα, IL-2Rβ, …); assay: cell-based or functional assay
[2] = biological target: human IL-12 receptor complex (IL-12Rβ1, IL-12Rβ2) (human, UniProt P42701 24-662; Q99665 24-862); assay: cell-based or functional assay
CD4 on CD4+ T cells = biological target: T2, CD4 on CD4+ T cells (UniProt P01730 26-458, limits assumed); assay: FACS
T2 construct: whole, on cells

[3] = biological target: T1, human IL-2 receptor (IL-2Rα, IL-2Rβ, …); assay: cell-based or functional assay; remark: listed apart in the source

Chain of human IL-12 receptor complex (IL-12Rβ1, IL-12Rβ2) (Q99665 24-862, chain 2 of 2, other chains not shown): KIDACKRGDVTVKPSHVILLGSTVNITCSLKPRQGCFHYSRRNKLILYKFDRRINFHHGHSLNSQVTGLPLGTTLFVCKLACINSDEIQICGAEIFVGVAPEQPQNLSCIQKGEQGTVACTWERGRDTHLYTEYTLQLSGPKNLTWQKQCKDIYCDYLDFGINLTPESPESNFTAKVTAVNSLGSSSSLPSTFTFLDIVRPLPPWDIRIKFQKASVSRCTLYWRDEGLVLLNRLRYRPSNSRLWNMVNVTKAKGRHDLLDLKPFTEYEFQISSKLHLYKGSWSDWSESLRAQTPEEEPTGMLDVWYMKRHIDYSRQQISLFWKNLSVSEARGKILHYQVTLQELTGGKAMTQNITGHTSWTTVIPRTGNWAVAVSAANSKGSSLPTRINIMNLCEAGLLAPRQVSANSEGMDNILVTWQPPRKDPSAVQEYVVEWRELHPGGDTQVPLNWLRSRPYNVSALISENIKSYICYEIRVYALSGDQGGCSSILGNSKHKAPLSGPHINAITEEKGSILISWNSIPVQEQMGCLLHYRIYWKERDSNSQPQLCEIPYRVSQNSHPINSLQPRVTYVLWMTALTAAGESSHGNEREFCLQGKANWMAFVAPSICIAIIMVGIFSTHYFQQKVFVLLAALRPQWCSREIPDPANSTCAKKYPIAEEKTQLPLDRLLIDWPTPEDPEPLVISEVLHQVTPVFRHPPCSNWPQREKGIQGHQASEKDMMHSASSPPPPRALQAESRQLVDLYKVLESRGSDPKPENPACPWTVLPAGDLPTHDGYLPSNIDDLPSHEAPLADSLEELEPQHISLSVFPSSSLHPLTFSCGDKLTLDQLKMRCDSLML

| Binder | Percent IL-2 signal transduction (HEK-IL-2 reporter assay) [1] [%] | Percent IL-2 signal transduction (HEK-PD-1-IL-2 reporter assay) [1] [%] | IL-12 biological activity (IFN-γ release), CD4+ T cells [2] [%] | IL-12 biological activity (IFN-γ release), CD8+ T cells [2] [%] | binding result (CD4 on CD4+ T cells) | Percent IL-2 signal transduction (HEK-IL-2 reporter assay) [3] [%] | Percent T-cell proliferation (PBMC proliferation assay) [3] [%] |
| --- | --- | --- | --- | --- | --- | --- | --- |
| B1 | 0 | 0 | – | – | – | – | – |
| B2 | – | – | 21 | 56 | no binding | – | – |
| B3 | – | – | 2.1 | 24.2 | no binding | – | – |
| B4 | – | – | 1.2 | 21.9 | no binding | – | – |
| B5 | – | – | 0 | 11 | no binding | – | – |
| B6 | – | – | – | – | – | 2.5 | 45 |
